Values quoted from earlier work, collected in article PMC9636575.

Biological target: MqsA 1-76 (Escherichia coli) (UniProt Q46864)
Sequence (Q46864 1-76): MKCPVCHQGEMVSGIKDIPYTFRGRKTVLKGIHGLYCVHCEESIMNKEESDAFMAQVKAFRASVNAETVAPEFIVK

Sequence of MqsR (Q46865 whole entry): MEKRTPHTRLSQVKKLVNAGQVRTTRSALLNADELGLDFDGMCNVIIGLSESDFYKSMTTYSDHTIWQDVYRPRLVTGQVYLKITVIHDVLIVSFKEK

## MqsR (from UniProt Q46865)
  Kd: < 1 nM
